The results in this text go back to article PMC3401449 (Nucleic Acids Research, 2012).

The assay concerns the target T1, His-tagged, wild-type DNA polymerase IV (Pol IV) (Escherichia coli, UniProt Q47155 1-351).
T1 sequence (looked up): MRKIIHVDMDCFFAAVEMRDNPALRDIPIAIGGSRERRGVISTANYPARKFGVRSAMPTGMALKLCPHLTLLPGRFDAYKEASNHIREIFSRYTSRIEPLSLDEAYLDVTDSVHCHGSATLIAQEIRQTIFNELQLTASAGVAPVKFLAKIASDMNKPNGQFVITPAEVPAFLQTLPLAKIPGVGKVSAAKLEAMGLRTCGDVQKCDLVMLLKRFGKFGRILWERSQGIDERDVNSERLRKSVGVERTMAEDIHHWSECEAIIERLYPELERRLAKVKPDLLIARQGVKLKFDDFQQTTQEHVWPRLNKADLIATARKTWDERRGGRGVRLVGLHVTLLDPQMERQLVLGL
Nature of the assay: pull-down.

B1: SSB-Ct peptide (Trp–Met–Asp–Phe–Asp–Asp–Asp–Ile–Pro–Phe) (peptide)
peptide: WMDFDDDIPF
As for B1, the binding result is listed as “binds”.
